Source: US20240350646A1, “METHODS AND COMPOSITIONS FOR DELIVERY TO AND ACROSS THE BLOOD BRAIN BARRIER” (NUtech Ventures, priority 2021, published 2024)
Like-named read-outs stand apart in the source and are kept apart here.

Columns and labels:
[1] = middle aged humans of around 40 years of age; cited from earlier work
human claudin-1 = molecular target: T1, human claudin-1 (Homo sapiens, UniProt O95832); experiment: Microscale thermophoresis (MST) binding
T1 construct: made in house
T1 sequence (O95832 1-211): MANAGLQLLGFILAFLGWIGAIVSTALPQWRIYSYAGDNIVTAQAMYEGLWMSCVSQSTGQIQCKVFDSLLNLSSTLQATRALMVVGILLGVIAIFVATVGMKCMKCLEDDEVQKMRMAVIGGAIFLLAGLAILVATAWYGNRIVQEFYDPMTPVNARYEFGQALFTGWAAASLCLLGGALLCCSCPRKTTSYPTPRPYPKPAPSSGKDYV
Method: Human claudin-1 was expressed and purified as reported previously (Vecchio & Stroud, 2019, PNAS USA, 116:17817-24). MST measurements were performed using a Monolith instrument (NanoTemper Technologies). For experiments with human claudin-1, the assay buffer contained 10 mM Tris HCl, pH 8.0, 100 mM NaCl, 4% glycerol, and 0.04% n-Dodecyl-β-D-Maltopyranoside (β-DDM). NPs and peptides were labeled with AF647 prior to MST analysis as described above. For the binding experiments, the concentration of human claudin-1 was varied from 2.2-73,500 nM and the AF647-labeled C1C2-NP was fixed at 70 nM, while the AF647 labeled NPs and AF647 labeled C1C2 peptide were fixed at 1 and 0.3 μM, respectively. Binding of the AF647 labeled C1C2-NP to human claudin-3, -4, and -9 were tested using 0.4-14000 nM, 0.8-28000 nM, and 0.6-20000 nM, respectively; with the AF647 labeled C1C2-NP fixed at 70 nM. This assay buffer was similar, except β-DDM was replaced with 0.1% n-Undecyl-β-D-Maltopyranoside (beta-UDM). In order to check non-specific binding of β-DDM micelles to the AF647 labeled C1C2-NP, the concentration of beta-DDM was varied from 0.03-900 μM and the concentration of the AF647-labeled C1C2-NP was fixed at 1 μM. A similar experiment was performed wherein the concentration of beta-UDM was varied from 0.3-10,000 μM and the concentration of AF647-labeled control NP was fixed at 1 μM. The non-specific binding of human claudins 4 and 9 to the NP was examined by varying the concentrations of human claudins 4 and 9 from 0.7-20,100 nM and 0.8-31,100 nM, respectively. The human claudin sub-dilutions were mixed with the NPs or peptides and loaded in standard monolith NT.115 capillary tubes for measurement. All experiments were conducted at 23° C. using the nano-red channel of the Monolith instrument and the data were analyzed by using either Monolith analysis software or Graph Pad Prism, version 9 (Graph Pad Software, San Diego, California).

Molecule | K^trans, hippocampus [1] [min⁻¹] | Binding to human claudin-1 (in words) (human claudin-1) | Binding to human claudin-1 (in words) (human claudin-1; listed as C1C2 peptides)
CNC[C@H](O)[C@@H](O)[C@H](O)[C@H](O)CO.CNC[C@H](O)[C@@H](O)[C@H](O)[C@H](O)CO.O=C([O-])CN(CCN(CC(=O)[O-])CC(=O)O)CCN(CC(=O)O)C(COCc1ccccc1)C(=O)[O-].[Gd+3] (stereo not drawn) [MultiHance] | ~0.001 |  | 
C1C2 peptide: Peptide SSVSQSTGQIQSKVDSLLNLNSTQATR (SEQ ID NO: 6) purchased from Genscript; binds first extracellular loop of claudin-1 (Ac-SSVSQSTGQIQSKVDSLLNLNSTQATR-NH2) |  | little binding | no binding
